B1: Human PHOX2B transcription factor fragment comprising 26 alanine residues (XS26) (other)
chain: GPGGPGGEPGKGGAAAAAAAAAAAAAAAAAAAAAAAAAAGGLAAAGGPGQGWAPGPGPITSIPDSLGGPFASVLSSLQRPNGAKAALVKSSMF
notes: C-terminal fragment of human PHOX2B (XS construct, 228-314 in wild-type numbering) with the polyAla tract expanded from 20 to 26 alanines (241-266); Made in E. coli as a thioredoxin-His6-TEV fusion and cleaved with TEV; 15N/13C-labelled for NMR; For microscopy a C315 mutant tagged with ATTO-488 or ATTO-565 was mixed 1:400-1:600 with the unlabelled protein; also called +6 Ala variant; expanded …

Assays:
[1] = target: Human PHOX2B transcription factor fragment comprising 26 alanine residues (XS26) (human) (UniProt Q99453); experiment: 13C-HSQC NMR titration, 0.1 mM XS26, 1:1 molar ratio, 25°C
[2] = target: Human PHOX2B transcription factor fragment comprising 26 alanine residues (XS26) (human) (UniProt Q99453); experiment: CACO NMR, 0.225 mM XS26 incubated 48 h at 25°C with 0.45 mM HSP70 (1:2)
[3] = target: B1; experiment: confocal fluorescence microscopy, colocalisation in condensates
[4] = target: the molecule itself; experiment: 15N spin relaxation, overall correlation time, self-association
[5] = target: the molecule itself; experiment: 15N spin relaxation, self-association

| Molecule | decrease of NMR signal intensity, polyAla moieties in disordered conformation [1] [%] | decrease of NMR signal intensity, polyAla tract in α-helical conformation [1] [%] | binding result [5] | also measured |
| --- | --- | --- | --- | --- |
| Human HSP72 (named HSP70) (from UniProt P54652 1-639) | > 50 | < 20 | – | decrease of the population of nascent disordered alanines (CACO signal intensity) [2]: 50% |
| Human HSP90β (named HSP90) (from UniProt P08238 1-724) | > 50 | < 40 | – | – |
| Human PHOX2B transcription factor fragment comprising 20 alanine residues (XS20) (other, Fragment of residues 228-314 of human PHOX2B, polyAla tract at 241-260; Made as a thioredoxin-His6-TEV fusion and cleaved with TEV; For microscopy a C315 mutant tagged with ATTO-488 or ATTO-565 was mixed 1:400-1:600 with the unlabelled protein; also called wild type PHOX2B fragment; wt PHOX2B (20 alanines)) GPGGPGGEPGKGGAAAAAAAAAAAAAAAAAAAAGGLAAAGGPGQGWAPGPGPITSIPDSLGGPFASVLSSLQRPNGAKAALVKSSMF | – | – | – | binding result [3]: binds; binding result [4]: binds |
| Human PHOX2B transcription factor fragment comprising 23 alanine residues (XS23) (other, XS fragment of human PHOX2B with the polyAla tract expanded from 20 to 23 alanines; Made as a thioredoxin-His6-TEV fusion and cleaved with TEV; also called +3 Ala variant) GPGGPGGEPGKGGAAAAAAAAAAAAAAAAAAAAAAAGGLAAAGGPGQGWAPGPGPITSIPDSLGGPFASVLSSLQRPNGAKAALVKSSMF | – | – | binds | – |
| B1 | – | – | binds | – |
